Data published in PMC10850481, “Structural basis for the oligomerization-facilitated NLRP3 activation” (Nature Communications, 2024).

B1: PYD-deleted human NLRP3 (NLRP3_(ΔPYD)), from the construct FLAG.6His.MBP.TEV.CfaC.NLRP3_130.K131F.M132N-1036 (domain or fragment, UniProt Q96P20 130-1036, looked up)
chain: CFNKKDYRKKYRKYVRSRFQCIEDRNARLGESVSLNKRYTRLRLIKEHRSQQEREQELLAIGKTKTCESPVSPIKMELLFDPDDEHSEPVHTVVFQGAAGIGKTILARKMMLDWASGTLYQDRFDYLFYIHCREVSLVTQRSLGDLIMSCCPDPNPPIHKIVRKPSRILFLMDGFDELQGAFDEHIGPLCTDWQKAERGDILLSSLIRKKLLPEASLLITTRPVALEKLQHLLDHPRHVEILGFSEAKRKEYFFKYFSDEAQARAAFSLIQENEVLFTMCFIPLVCWIVCTGLKQQMESGKSLAQTSKTTTAVYVFFLSSLLQPRGGSQEHGLCAHLWGLCSLAADGIWNQKILFEESDLRNHGLQKADVSAFLRMNLFQKEVDCEKFYSFIHMTFQEFFAAMYYLLEEEKEGRTNVPGSRLKLPSRDVTVLLENYGKFEKGYLIFVVRFLFGLVNQERTSYLEKKLSCKISQQIRLELLKWIEVKAKAKKLQIQPSQLELFYCLYEMQEEDFVQRAMDYFPKIEINLSTRMDHMVSSFCIENCHRVESLSLGFLHNMPKEEEEEEKEGRHLDMVQCVLPSSSHAACSHGLVNSHLTSSFCRGLFSVLSTSQSLTELDLSDNSLGDPGMRVLCETLQHPGCNIRRLWLGRCGLSHECCFDISLVLSSNQKLVELDLSDNALGDFGIRLLCVGLKHLLCNLKKLWLVSCCLTSACCQDLASVLSTSHSLTRLYVGENALGDSGVAILCEKAKNPQCNLQKLGLVNSGLTSVCCSALSSVLSTNQNLTHLYLRGNTLGDKGIKLLCEGLLHPDCKLQVLELDNCNLTSHCCWDLSTLLTSSQSLRKLSLGNNDLGDLGVMMFCEVLKQQSCLLQNLGLSEMYFNYETKSALETLQEEKPELTVVFEPSW
notes: human NLRP3 (UniProt Q96P20), residues 130-1036 (NACHT and LRR, PYD deleted) with K131F and M132N next to the CfaC intein fragment; The same protomer forms an octamer (with ATP, no MCC950), a hexamer (with ATP and MCC950) and a back-to-back dimer (with NEK7, ATP and MCC950); The second construct, MBP.TEV.NLRP3_130_1036, was used only for the ATPase and nanoDSF assays; also called …

Columns and labels:
[1] = target: B1; assay: cryo-EM structure; NLRP3_(ΔPYD) with ATP, MCC950 (10 fold molar excess) and NEK7_(K63M/K64M) (2 fold molar excess); Superdex 200 peak fractions; C2 symmetry imposed; closed NEK7/NLRP3 dimer; details: both partners purified
[2] = target: the molecule itself; assay: cryo-EM structure; NLRP3_(ΔPYD) with ATP and MCC950; D3 symmetry imposed; closed hexamer, seen in the dataset without NEK7 and as one of two populations in the dataset with NEK7
[3] = target: the molecule itself; assay: cryo-EM structure; NLRP3_(ΔPYD) with ATP, without MCC950; applied to grids immediately after SEC (Superose 6, 25 mM HEPES pH 7.4, 0.4 M NaCl, 0.2% CHAPS, 0.2 mM TCEP); D2 symmetry imposed; open octamer
[4] = target: the molecule itself; assay: cryo-EM structure; NLRP3_(ΔPYD) with ATP, MCC950 (10 fold molar excess) and NEK7_(K63M/K64M) (2 fold molar excess); Superdex 200 peak fractions; C2 symmetry imposed; closed NEK7/NLRP3 dimer

Row | binding result [1] | Binder | stoichiometry N [2] | stoichiometry N [3] | stoichiometry N [4]
1 | binds | human NEK7 with kinase mutations K63M/K64M (NEK7_(K63M/K64M)) (enzyme, human NEK7 (UniProt Q8TDX7) with kinase mutations K63M/K64M; also called NIMA-related kinase 7; 6His.SUMO.NEK7_(K63M/K64M); source: E. coli BL21(DE3), purified (HisPur Ni resin, Ulp1 cleavage, HisTrap flow-through, Superdex 200); not shown: His6, N-terminal, cleaved; SUMO, N-terminal, cleaved) not shown |  |  | 
2 |  | B1 | 6 | 8 | 2
